Measurements from US5801037A, “Expression of signal-peptide-free staphylokinases” (medac Gesellschaft fur klinische spezialpraparate mbH, priority 1991, dated 1998).

B1: SAK fragment form N10ΔSAK42D (other)
chain: MKGDDASYFEPTGPYLMVNVTGVDGKRNELLSPRYVEFPIKPGTTLTKEKIEYYVEWALDATAYKEFRVVELDPSAKIEVTYYDKNKKKEETKSFPITEKGFVVPDLSEHIKNPGFNLITKVVIEKK
B2: SAK fragment form N14ΔSAK42D (other)
chain: MASYFEPTGPYLMVNVTGVDGKRNELLSPRYVEFPIKPGTTLTKEKIEYYVEWALDATAYKEFRVVELDPSAKIEVTYYDKNKKKEETKSFPITEKGFVVPDLSEHIKNPGFNLITKVVIEKK
B3: SAK42D: signal-peptide-free mature native staphylokinase from S. aureus phage 42D, 136 amino acids, Seq. Id. No. 1 (protein)
chain: MSSSFDKGKYKKGDDASYFEPTGPYLMVNVTGVDGKRNELLSPRYVEFPIKPGTTLTKEKIEYYVEWALDATAYKEFRVVELDPSAKIEVTYYDKNKKKEETKSFPITEKGFVVPDLSEHIKNPGFNLITKVVIEKK

Tests used:
plasminogen [1] = target: plasminogen
[2] = target: human plasminogen isolated from human plasma (human, UniProt P00747); test: analytical affinity chromatography on immobilized human plasminogen, 16° C., 0.1M tris-HCl pH 7.3
plasminogen [3] = test: Determination of the specific activity of the SAK polypeptides (plasmin release from plasminogen, Chromozym-PL); type: biochemical; conditions: plasminogen in excess, activation 10 minutes at 25° C., 405 nm
Description: The specific activity of a SAK form is defined as that quantity of plasmin (μmol) which is released per minute by 1 μmol of this SAK polypeptide from plasminogen (used in excess).
The protein content of the pertinent SAK polypeptide-containing parent solutions is established by means of the Bio-Rad Protein Assay (Bio-Rad, Munich) using bovine serum albumin as standard protein.
The determination of the plasmin release by the SAK polypeptides is carried out in two steps:
Firstly, dilution series (1 ng to 500 ng) of the SAK polypeptides are produced in 100 mM tris (pH 8.0). A reaction mixture, consisting of 30 μl plasminogen solution 20 mg plasminogen (Fluka), dissolved in 1 ml H2 O, 150 μl 100 mM tris buffer (pH 5.0) and 10 μl activator solution (dilution series SAK polypeptides) is then prepared. This mixture is incubated for 10 minutes at 25° C. […]
Reference samples, calibration samples and the actual measurement samples (each 250 μl) are pipetted into a microtitre plate with 96 cavities (flat bottom) and the adsorption at 405 nm is measured in a multi-channel photometer.
The quantity of plasmin which is released per minute by the SAK polypeptides contained in the starting solutions (dilution samples) can be calculated from the absorption values of the measured samples, taking into account the absorption values of the plasmin calibration series and of the reference samples. […]

| Molecule | specific activity in µmol plasmin/(µmol SAK × min) (µmol plasmin/(µmol SAK × min)) (plasminogen [1]) | other results |
| --- | --- | --- |
| SAK fragment form N10ΔSAK42D | 22.7 |  |
| SAK fragment form N14ΔSAK42D | 8.1 |  |
| artificial allelic SAK form SAKM26C | 21.1 |  |
| artificial allelic SAK form SAKM26L | 36.6 |  |
| mature native staphylokinase SAK42D | 16.2 |  |
| B1 |  | Kd [2]: 2.21 µM |
| B2 |  | Kd [2]: 4.4 µM |
| B3 |  | specific activity (plasminogen [3]): 16.2 μmol plasmin/(μmol SAK × min) |
